# Laboratory results: US20160244525A1 (Genentech, published 2016)
# Residue numbers refer to the chain shown, from its start.
# T1: FGFR1-IIIb (human, UniProt P11362-19 22-376, limits assumed)
# T1 construct: Soluble FGFR antigen in SPR
# T1 sequence (looked up): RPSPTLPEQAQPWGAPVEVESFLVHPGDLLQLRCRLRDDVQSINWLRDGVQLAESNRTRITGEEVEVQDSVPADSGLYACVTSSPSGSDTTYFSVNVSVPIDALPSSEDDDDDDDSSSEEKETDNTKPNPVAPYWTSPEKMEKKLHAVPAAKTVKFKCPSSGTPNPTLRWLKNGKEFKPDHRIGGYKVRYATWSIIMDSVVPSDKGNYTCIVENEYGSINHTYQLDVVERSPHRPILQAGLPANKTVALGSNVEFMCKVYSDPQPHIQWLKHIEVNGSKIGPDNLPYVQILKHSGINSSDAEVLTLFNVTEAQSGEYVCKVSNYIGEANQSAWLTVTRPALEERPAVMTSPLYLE
# T2: FGFR3-IIIc (human, UniProt P22607 23-375, limits assumed)
# T2 construct: also called human FGFR3-IIIc
# T2 sequence: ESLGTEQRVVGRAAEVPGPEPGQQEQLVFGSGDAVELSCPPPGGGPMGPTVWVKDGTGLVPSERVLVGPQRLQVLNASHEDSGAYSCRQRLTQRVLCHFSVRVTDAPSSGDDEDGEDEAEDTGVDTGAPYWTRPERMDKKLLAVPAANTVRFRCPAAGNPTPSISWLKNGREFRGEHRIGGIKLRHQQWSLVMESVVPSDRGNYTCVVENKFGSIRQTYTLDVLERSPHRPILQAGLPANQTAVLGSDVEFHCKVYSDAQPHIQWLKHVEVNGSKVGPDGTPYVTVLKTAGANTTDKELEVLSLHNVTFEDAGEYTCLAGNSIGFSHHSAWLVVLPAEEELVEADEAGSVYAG
# T3: FGFR2-IIIb (D2D3) (human)
# T3 construct: also called human FGFR2-IIIb ECD (residue 140-369)
# T3 chain: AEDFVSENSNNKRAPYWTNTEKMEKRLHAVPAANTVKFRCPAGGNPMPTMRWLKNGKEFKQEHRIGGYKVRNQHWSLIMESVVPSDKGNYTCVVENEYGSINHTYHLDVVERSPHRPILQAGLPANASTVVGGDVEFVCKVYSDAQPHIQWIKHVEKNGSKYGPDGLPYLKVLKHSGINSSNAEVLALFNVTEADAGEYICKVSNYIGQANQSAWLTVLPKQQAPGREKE
# T4: FGFR4 (human, UniProt P22455 22-369, limits assumed)
# T4 construct: also called human FGFR4; FGFR4-His
# T4 sequence (looked up): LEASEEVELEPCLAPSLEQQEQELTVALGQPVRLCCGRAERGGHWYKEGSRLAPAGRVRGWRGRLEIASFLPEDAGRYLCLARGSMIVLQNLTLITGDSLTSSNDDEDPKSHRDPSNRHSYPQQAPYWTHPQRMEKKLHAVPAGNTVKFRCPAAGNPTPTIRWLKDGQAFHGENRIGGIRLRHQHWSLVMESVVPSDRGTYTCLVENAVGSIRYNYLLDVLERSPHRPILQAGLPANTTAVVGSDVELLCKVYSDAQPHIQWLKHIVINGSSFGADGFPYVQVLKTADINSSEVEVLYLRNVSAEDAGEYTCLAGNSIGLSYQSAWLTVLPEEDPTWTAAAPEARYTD
# B1: 24A1 (antibody, V domains shown)
# VH: QVQLKQSGAELVRPGTSVTLSCKASGYTFTDYEMHWMKQTPVYGLEWIGAIWPENADSVYNQKFKGKVTLTADKSSSTAYMDLRSLTSEDSAVYYCTREGGNYWGQGTTLTVSS
# VL: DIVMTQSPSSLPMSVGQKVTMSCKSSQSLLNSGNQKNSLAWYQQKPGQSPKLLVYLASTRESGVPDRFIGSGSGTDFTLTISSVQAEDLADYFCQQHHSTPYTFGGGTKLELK
# B2: 14C6 (antibody, V domains shown)
# VH: QIQLQQSGAELMKPGASVRMSCKASGYTFSSYWIEWVKQRSGHGLEWIGEIFPGGGSTIYNENFRDKATFTADTSSNTAYMQLSSLTSEDSAVYFCARRGYYDAAWFDYWGQGTLVTVSA
# VL: QIVLTQSPAIMSASPGERVTLTCSASSSLSSSYLYWYQQKPGSSPKLWIYGASNLASGVPGRFSGSGSGTSYSLTISSMEAEDAASYFCHQWSSYPLTFGSGTKLELK
# B3: R3Mab (antibody, human IgG1, kappa, V domains shown)
# VH: EVQLVESGGGLVQPGGSLRLSCAASGFTFTSTGISWVRQAPGKGLEWVGRIYPTNGSTNYADSVKGRFTISADTSKNTAYLQMNSLRAEDTAVYYCARTYGIYDLYVDYTEYVMDYWGQGTLVTVSS
# VL: DIQMTQSPSSLSASVGDRVTITCRASQDVDTSLAWYKQKPGKAPKLLIYSASFLYSGVPSRFSGSGSGTDFTLTISSLQPEDFATYYCQQSTGHPQTFGQGTKVEIKR
# notes: IgG in SPR; also called parental anti-FGFR3 antibody
# B4: 2B1.1.2 (antibody, V domains shown)
# VH: B3 VH with I51Y, Y52W, P53A, T54W, N55D, L105T, V107D, D108N
# VL: B3 VL
# B5: 2B.1.3.10 (antibody, human IgG1, kappa, V domains shown)
# VH: B3 VH with T28P, T32Q, I51T, Y52H, P53L, T54G, N55D, L105T, V107D, D108K
# VL: B3 VL
# notes: Full IgG1/kappa chains; also called Mab 2B.1.3.10
# B6: 2B.1.1.6 (antibody, human IgG1, kappa, V domains shown)
# VH: B3 VH with I51Y, Y52W, P53A, T54W, N55D, L105T, V107D, D108E
# VL: B3 VL
# notes: Full IgG1/kappa chains
# B7: 2B.1.3.12 (antibody, human IgG1, kappa, V domains shown)
# VH: B3 VH with T28P, I51T, Y52H, P53L, T54G, N55D, L105T, V107D, D108M
# VL: B3 VL
# notes: Full IgG1/kappa chains; also called Mab 2B.1.3.12
# B8: 2B1.1.12 (antibody, V domains shown)
# VH: B3 VH with T28P, I51Y, Y52W, P53A, T54W, N55D, L105T, V107D, D108M
# VL: B3 VL
# B9: 2B1.1.10 (antibody, V domains shown)
# VH: B3 VH with T28P, T32Q, I51Y, Y52W, P53A, T54W, N55D, L105T, V107D, D108K
# VL: B3 VL
# B10: 2B.1.3 (antibody, human IgG1, kappa, V domains shown)
# VH: B3 VH with I51T, Y52H, P53L, T54G, N55D
# VL: B3 VL
# notes: Full IgG1/kappa chains; also called Mab 2B.1.3
# B11: 2B1.1.4 (antibody, V domains shown)
# VH: B3 VH with I51Y, Y52W, P53A, T54W, N55D, L105I, V107G, D108G
# VL: B3 VL
# B12: 2B1.1.8 (antibody, V domains shown)
# VH: B3 VH with T28P, T32L, I51Y, Y52W, P53A, T54W, N55D, L105I, V107E, D108K
# VL: B3 VL
# B13: 8H7 (antibody, V domains shown)
# VH: QVQLQQPGAEIVKPGASVRLSCKASGYSFTSYWIHWVKQRPGQGLEWIGEIDPSVSNSNYNQKFKGKATLTADKSSSTAYMQLSGLTSEDSAVYFCVRLGVMVYGSSPFWFAYWGQGTLVTVSA
# VL: DIVMTQSQKFMSTSVGDRVSITCKASQFVSDAVAWYQQKPGQSPKLLICSASYRYTGVPDRFTGSGSGTDFTFTISSVRTEDLAVYYCQQHYIVPYTFGGGTTLEIE
# B14: 5F8 (antibody, V domains shown)
# VH: EVQLQQSGTELVRPGASVKLSCTSSDFNIKDTYIHWVKQRPEQGLDWLGRIDPANGNTKYDPKFQGKAAMTSDTSSNTAYLRLSSLTSEDTAVYYCASSGNYGAMDYWGQGTSVTVSS
# VL: ESVLTQSPALMSASLGEKVTMTCRASSSVNHMYWYQQKSDASPKLWIYYTSTLAPGVPARFSGSGSGNSYSLTISSMEGEDAATYYCQQFTISPSMYTFGGGTKLEIK
# B15: 25F7 (antibody, V domains shown)
# VH: EVQLQQSGAELLKPGASVRLSCTASGFNIQDTFTHWVRQRPEQGLEWIGRIDPSNGNTKYDPKFQGKAKILADTSSNTAYLQLIGLTSEDTAVYYCASRALGNGYAMDYWGQGTSVTVSS
# VL: DIQMTQSSSYLSVSLGGRVTITCKASDHINNWLAWYQQKPGNAPRLLISGASNLETGIPSRFSGSGSGKDYTLTITSLQTEDVATYYCQQYWNTPFTFGSGTKLEIK
# B16: 11D4 (antibody, V domains shown)
# VH: QVQVKESGPGLVAPSQSLSITCTVSGFSLTNYGVSWIRQPPGKGLEWLGVIWGDGSINYHSALISRLTITKDNSKSQVFLKLNSLEADDTATYYCAKTHDWFDYWGQGTLVTVSA
# VL: DIQMTQTPSSLSASLGDRVTINCRASQDISNYFNWYQQKPNGTIKLLIYYTSRLQSGVPSRFSGSGSGTDYSLTISNLEQEDKATYFCHQVRTLPWTFGGGTKLEIK
# Legend:
# [1] = target: T5, hKLB; assay: FACS on 293 cells expressing hKLB, antibody at 0.8 ug/ml
# T5 construct: also called human beta-Klotho on 293 cells
# T5 sequence (chain, as listed by the source limits assumed): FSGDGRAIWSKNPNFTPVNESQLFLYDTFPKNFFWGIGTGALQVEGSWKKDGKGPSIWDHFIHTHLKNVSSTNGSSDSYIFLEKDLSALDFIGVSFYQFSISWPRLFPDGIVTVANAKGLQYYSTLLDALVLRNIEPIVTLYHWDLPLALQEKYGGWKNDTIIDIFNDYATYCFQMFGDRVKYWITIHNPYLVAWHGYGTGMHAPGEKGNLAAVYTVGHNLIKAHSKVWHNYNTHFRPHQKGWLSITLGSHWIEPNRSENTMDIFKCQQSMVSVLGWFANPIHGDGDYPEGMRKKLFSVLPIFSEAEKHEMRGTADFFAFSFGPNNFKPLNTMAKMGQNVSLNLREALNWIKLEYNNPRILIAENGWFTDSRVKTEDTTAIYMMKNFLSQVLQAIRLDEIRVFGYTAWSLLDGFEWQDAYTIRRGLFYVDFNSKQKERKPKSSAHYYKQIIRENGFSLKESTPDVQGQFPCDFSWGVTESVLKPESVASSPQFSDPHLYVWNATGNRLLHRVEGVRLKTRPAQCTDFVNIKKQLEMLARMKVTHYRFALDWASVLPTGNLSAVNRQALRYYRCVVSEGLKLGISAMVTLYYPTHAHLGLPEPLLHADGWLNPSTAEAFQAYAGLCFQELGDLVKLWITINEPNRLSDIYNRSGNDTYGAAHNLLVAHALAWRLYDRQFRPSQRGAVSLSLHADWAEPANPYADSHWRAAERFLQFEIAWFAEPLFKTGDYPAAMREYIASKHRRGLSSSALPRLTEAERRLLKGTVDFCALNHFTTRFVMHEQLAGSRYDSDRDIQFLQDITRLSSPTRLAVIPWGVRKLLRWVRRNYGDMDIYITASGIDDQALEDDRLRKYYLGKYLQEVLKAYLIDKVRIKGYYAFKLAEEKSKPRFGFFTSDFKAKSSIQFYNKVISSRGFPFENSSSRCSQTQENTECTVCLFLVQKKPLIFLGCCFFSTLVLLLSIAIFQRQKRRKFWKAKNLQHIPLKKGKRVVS
# [2] = target: T1, FGFR1-IIIb; assay: SPR
# Description: (§1) A saturated amount of anti-human Fc monoclonal antibody was immobilized onto a CM5 biosensor chip by following the product instructions. […] FGFR antigens of various concentrations were injected at a flow rate 30 μL/min. After each binding cycle, flow cells were regenerated using 3M MgCl₂. Kinetic analyses were performed using the T100 evaluation software to obtain the kinetic and affinity constants.
# (§2) 1.3 variants were determined by capturing FGFR4-Fc and flowing the antibody Fab fragments (Table 12).
# [3] = target: T2, FGFR3-IIIc; assay: SPR
# Description: as §1, §2
# [4] = target: T3, FGFR2-IIIb (D2D3); assay: SPR (Biacore)
# [5] = target: T2, FGFR3-IIIc; assay: SPR (Biacore T100), IgG captured by anti-human Fc, FGFR flowed
# Description: as §1
# [6] = target: T4, FGFR4; assay: blocking ELISA: FGFR4-Fc captured on an anti-human Fc plate, antibody titrated, FGF-19 (with heparin) is the ligand, bound FGF-19 read as OD450
# Description: (§3) The plate was washed 5 times before being added with the antibody and FGF ligand mixtures, which was prepared as 49 μL 100 ng/mL FGF ligand, 1 μL 25 mg/mL Heparin (Sigma-Aldrich) and 50 μL antibody dilutions. After shaking at RT for 2 h, the plate was washed 5 times. Bound ligand was detected by subsequent incubations at RT with 0.5 μg/mL biotinylated anti-FGF antibodies (R&D Biosystems) for 0.5 h, 1:2,500-diluted Streptavidin-HRP (Invitrogen) for 0.5 h and the TMB substrate until enough color development.
# [7] = target: T6, FGFR2-IIIc (human, UniProt P21802 22-377); assay: blocking ELISA: FGFR2-IIIc-Fc captured on an anti-human Fc plate, antibody titrated, FGF-1 (with heparin) is the ligand, bound FGF-1 read as OD450
# T6 construct: also called human FGFR2-IIIc; FGFR2-IIIc-His
# T6 sequence (P21802 22-377 limits assumed): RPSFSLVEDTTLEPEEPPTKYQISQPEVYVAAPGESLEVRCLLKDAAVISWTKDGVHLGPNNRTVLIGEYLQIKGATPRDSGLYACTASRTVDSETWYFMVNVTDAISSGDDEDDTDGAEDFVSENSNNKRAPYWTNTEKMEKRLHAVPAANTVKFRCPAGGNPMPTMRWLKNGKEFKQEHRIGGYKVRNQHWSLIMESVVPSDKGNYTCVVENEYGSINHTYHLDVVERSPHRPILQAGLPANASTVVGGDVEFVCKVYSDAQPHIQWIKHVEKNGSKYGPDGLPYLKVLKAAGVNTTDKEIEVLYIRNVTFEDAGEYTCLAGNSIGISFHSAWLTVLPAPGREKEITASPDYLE
# Description: as §3
# [8] = target: T2, FGFR3-IIIc; assay: blocking ELISA: FGFR3-IIIc-Fc captured on an anti-human Fc plate, antibody titrated, FGF-1 (with heparin) is the blocked ligand, bound FGF-1 read as OD450
# Description: as §3
# [9] = target: T2, FGFR3-IIIc; assay: surface plasmon resonance (Biacore)
# [10] = target: T1, FGFR1-IIIb; assay: SPR (Biacore T100), IgG captured by anti-human Fc, FGFR flowed
# Description: as §1
# [11] = target: T6, FGFR2-IIIc; assay: as above
# Description: as §1
# [12] = target: T6, FGFR2-IIIc; assay: SPR
# Description: as §1, §2
# [13] = target: T6, FGFR2-IIIc; assay: blocking ELISA: FGFR2-IIIc-Fc captured on an anti-human Fc plate, antibody titrated, FGF-1 (with heparin) is the blocked ligand, bound FGF-1 read as OD450
# Description: as §3
binder,measurement,setting,value
B1,binding result,[1],binds
B2,binding result,[1],binds
B3,binding result,[2],no binding
same,Kd,[3],0.61 nM
same,binding result,[4],no binding (tested: 200 nM)
same,Kd,[5],0.61 nM
same,binding result,[6],no binding (tested: 500 nM)
same,binding result,[7],no binding (tested: 128 nM)
same,IC50 (read off the curve),[8],2 to 3 nM
B4,Kd,[9],0.0908 nM
B5,binding result,[10],no binding (tested: 500 nM)
same,Kd,[11],1.1 nM
same,Kd,[5],0.25 nM
same,IC50 (read off the curve),[8],2 to 3 nM
B6,Kd,[9],0.0796 nM
B7,Kd,[12],6.1 nM
same,Kd,[3],0.72 nM
same,Kd,[9],0.28 nM
same,binding result,[10],no binding (tested: 500 nM)
same,Kd,[11],6.1 nM
same,Kd,[5],0.72 nM
same,IC50 (read off the curve),[8],2 to 3 nM
B8,Kd,[9],0.142 nM
B9,Kd,[9],0.198 nM
B10,binding result,[2],no binding
same,Kd,[12],2 nM
same,Kd,[3],0.07 nM
same,Kd,[4],0.71 nM
same,Kd,[9],0.0834 nM
same,Kd,[11],2 nM
same,Kd,[5],0.07 nM
same,IC50 (read off the curve),[13],~5 nM
same,IC50 (read off the curve),[8],2 to 3 nM
B11,Kd,[9],0.153 nM
B12,Kd,[9],0.112 nM
B13,binding result,[1],binds
B14,binding result,[1],binds
B15,binding result,[1],binds
B16,binding result,[1],binds
